In article PMC5517495, “Candidate SNP Markers of Familial and Sporadic Alzheimer's Diseases Are Predicted by a Significant Change in the Affinity of TATA-Binding Protein for Human Gene Promoters”:

B1: TPI1 promoter rs1800202 ancestral allele (stopped-flow) (dsDNA)
DNA 1: CGCGGCGCTCTATATAAGTGGGCAGT
DNA 2: ACTGCCCACTTATATAGAGCGCCGCG
B2: TPI1 promoter rs1800202 minor allele (stopped-flow) (dsDNA)
DNA 1: CGCGGCGCTCTATAGAAGTGGGCAGT
DNA 2: ACTGCCCACTTCTATAGAGCGCCGCG

Target: TATA-binding protein (TBP) (human, UniProt P20226 1-339)
Assay: stopped-flow fluorescence (FRET); 0.1 uM ODN, 0.1-1.0 uM TBP; EMSA: 20 mM HEPES-KOH pH 7.6, 5 mM MgCl2, 70 mM KCl, 1 mM EDTA, 100 ug/ml BSA, 0.01% NP-40 (printed 0.0.1%), 5% glycerol, 25 C; stopped-flow buffer not stated
Details: protein: recombinant; label: 5' TAMRA and 5' FAM; blunt

TATA-binding protein (TBP), sequence (P20226 whole entry): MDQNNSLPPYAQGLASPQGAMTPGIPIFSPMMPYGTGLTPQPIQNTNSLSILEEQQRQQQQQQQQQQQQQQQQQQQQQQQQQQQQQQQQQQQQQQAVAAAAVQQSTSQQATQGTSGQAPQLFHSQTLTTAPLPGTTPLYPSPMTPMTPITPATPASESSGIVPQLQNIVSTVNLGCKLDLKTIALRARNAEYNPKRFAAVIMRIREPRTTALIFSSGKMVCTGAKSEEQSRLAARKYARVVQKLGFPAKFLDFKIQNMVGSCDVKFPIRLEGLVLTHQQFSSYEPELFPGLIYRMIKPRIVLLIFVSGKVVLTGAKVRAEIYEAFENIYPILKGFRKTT

| Binder | Kd [nM] |
| --- | --- |
| B1 | 1 |
| B2 | 19 |
